{"source": "paper PMC9391438", "about": "“Structures of L-BC virus and its open particle provide insight into Totivirus capsid assembly” (Communications Biology, 2022)", "proteins": {"B1": {"name": "L-BC virus capsid protein (Saccharomyces cerevisiae virus L-BCLa) (natural protein)", "chain": "MSSLLNSLLPEYFKPKTNLNINSSRVQYGFNARIDMQYEDDSGTRKGSRPNAFMSNTVAFIGNYEGIIVDDIPILDGLRADIFDTHGDLDMGLVEDALSKSTMIRRNVPTYTAYASELLYKRNLTSLFYNMLRLYYIKKWGSIKYEKDAIFYDNGHACLLNRQLFPKSRDASLESSLSLPEAEIAMLDPGLEFPEEDVPAILWHGRVSSRATCILGQACSEFAPLAPFSIAHYSPQLTRKLFVNAPAGIEPSSGRYTHEDVKDAITILVSANQAYTDFEAAYLMLAQTLVSPVPRTAEASAWFINAGMVNMPTLSCANGYYPALTNVNPYHRLDTWKDTLNHWVAYPDMLFYHSVAMIESCYVELGNVARVSDSDAINKYTFTELSVQGRPVMNRGIIVDLTLVAMRTGREISLPYPVSCGLTRTDALLQGTEIHVPVVVKDIDMPQYYNAIDKDVIEGQETVIKVKQLPPAMYPIYTYGINTTEFYSDHFEDQVQVEMAPIDNGKAVFNDARKFSKFMSIMRMMGNDVTATDLVTGRKVSNWADNSSGRFLYTDVKYEGQTAFLVDMDTVKARDHCWVSIVDPNGTMNLSYKMTNFRAAMFSRNKPLYMTGGSVRTIATGNYRDAAERLRAMDETLRLKPFKITEKLDFRVAAYAIPSLSGSNMPSLHHQEQLQISEVDAEPINPIGEDELPPDIE", "notes": "Capsid protein of Saccharomyces cerevisiae virus L-BCLa (L-BC), as found in virus particles from yeast; genome NC_001641.1; the model has 1316 resolved residues for the two copies (A and B) of the icosahedral asymmetric unit; The same chain takes two conformations (A and B) in the capsid; no density for it was resolved; also called A subunit; B subunit"}}, "biological_target": "the molecule itself", "test": "cryo-EM structure; L-BC particles purified from yeast, vitrified in 20 mM Tris-HCl pH 7.5, 50 mM KCl, 10 mM MgCl2; empty particle 2.9 Å and virion 3.7 Å (icosahedral symmetry), open particle 10 Å (C5) and 12 Å (C1)", "data": [{"protein": "B1", "values": [{"measurement": "stoichiometry N", "value": 120}]}]}
